We go through 2 molecules from patent US20200368345A1.

For the experiment, the target named is HLA-A*02:01 molecule (as used for thermal stability and structures) (human). In words: thermal stability of the peptide-HLA-A*02:01 complex.

B1: BHA543-551 peptide (peptide)
peptide: GLDNHTILL
modifications: not checked
For B1, the Tm (temperature required to unfold 50% of the protein) of the pHLA-A*02:01 complex was found to be 72 ° C.

B2: PB1413-421 peptide (peptide)
peptide: NMLSTVLGV
modifications: not checked
Turning to B2, the Tm (temperature required to unfold 50% of the protein) of the pHLA-A*02:01 complex is 72 ° C.
